Data taken from the Human Domainome abundance scans (Beltran et al. 2025).
± gives the uncertainty stated by the source.

B1: Nuclear receptor subfamily 4 group A member 2, residues 260 to 336; numbered along this chain, P43354 (parent)
chain: EGLCAVCGDNAACQHYGVRTCEGCKGFFKRTVQKNAKYVCLANKNCPVDKRRRNRCQYCRFQKCLAVGMVKEVVRTD

Variants of: B1
Assay: abundance fitness (aPCA) (normalised: wild type 0, dead -1); higher = more abundant; growth selection in yeast, the domain comes from the species named
Conditions: Homo sapiens

Abundance fitness, by site and new letter:
V39: L -0.153 ± 0.2; R -0.055 ± 0.097; W 0.017 ± 0.17; Y -0.309 ± 0.29; A -0.107 ± 0.17; P 0.158 ± 0.23; G -0.616 ± 0.18; S 0.071 ± 0.13; Q -0.244 ± 0.31; E -0.058 ± 0.16
C46: M -0.993 ± 0.35; R -1.07 ± 0.22; V -0.851 ± 0.077; W -1.03 ± 0.13; G -0.897 ± 0.056; E -1.09 ± 0.46; A -1.16 ± 0.37; S -0.754 ± 0.19; L -0.609 ± 0.1
L41: Q -0.248 ± 0.27; V 0.022 ± 0.15; A -0.025 ± 0.29; S -0.072 ± 0.16; M 0.039 ± 0.11; G -0.109 ± 0.11; T -0.08 ± 0.22; E 0.064 ± 0.17; H -0.069 ± 0.37; R -0.064 ± 0.095; P 0.241 ± 0.27; K -0.167 ± 0.25
Y38: V -0.057 ± 0.39; C -0.026 ± 0.49; H 0.149 ± 0.23
K44: T -0.028 ± 0.15; W -0.126 ± 0.17; D -0.093 ± 0.16; V -0.371 ± 0.21; R -0.03 ± 0.12; G -0.052 ± 0.09; M 0.037 ± 0.14; Y -0.053 ± 0.37; H -0.129 ± 0.25; A -0.265 ± 0.24; C -0.464 ± 0.21; L -0.096 ± 0.16
R51: C -0.188 ± 0.09; V -0.035 ± 0.041; E 0.082 ± 0.12; T 0.166 ± 0.21; W 0.054 ± 0.051; Y -0.109 ± 0.17; L 0.042 ± 0.056; M 0.019 ± 0.3; G -0.001 ± 0.034; F 0.064 ± 0.096
K50: Y 0.024 ± 0.13; G -0.045 ± 0.037; F -0.055 ± 0.094; E 0.175 ± 0.15; R -0.193 ± 0.082; S -0.001 ± 0.097; C -0.115 ± 0.074; D -0.215 ± 0.17; A -0.098 ± 0.088; W -0.031 ± 0.057; P 0.356 ± 0.29; L -0.155 ± 0.073; T 0.102 ± 0.24
R52: K 0.041 ± 0.13; D 0.002 ± 0.12; G 0.065 ± 0.036; M -0.021 ± 0.1; L -0.043 ± 0.057; C -0.061 ± 0.071; A 0.025 ± 0.083; F -0.08 ± 0.094; E 0 ± 0.094
N43: G -0.202 ± 0.12; V -0.014 ± 0.1; I -0.231 ± 0.24; M -0.173 ± 0.27; T -0.505 ± 0.33; P -0.219 ± 0.21; S -0.123 ± 0.15; F 0.046 ± 0.46; L -0.059 ± 0.14; W -0.011 ± 0.16; Q -0.283 ± 0.29; E -0.198 ± 0.16; R -0.014 ± 0.15; A 0.245 ± 0.12
K37: P -0.008 ± 0.16; T 0.067 ± 0.15; Y 0.019 ± 0.21; F -0.362 ± 0.48; D -0.07 ± 0.27; R -0.099 ± 0.081; A -0.197 ± 0.11; G -0.07 ± 0.073; Q -0.041 ± 0.17; H -0.124 ± 0.18; V -0.118 ± 0.1; S -0.213 ± 0.13; M 0.11 ± 0.16; E -0.177 ± 0.18; C -0.134 ± 0.25
V48: C -0.156 ± 0.067; F -0.407 ± 0.11; M -0.032 ± 0.27; G -0.493 ± 0.041; A -0.409 ± 0.17; W -0.258 ± 0.05; L -0.175 ± 0.067; R -0.449 ± 0.1; S -0.091 ± 0.17
P47: E -0.083 ± 0.17; A -0.033 ± 0.13; V -0.056 ± 0.049; F -0.183 ± 0.1; L -0.004 ± 0.063; G -0.085 ± 0.037; W -0.215 ± 0.062; M -0.239 ± 0.48; S -0.076 ± 0.12; C -0.184 ± 0.081; I 0.009 ± 0.2; D 0.106 ± 0.098; R -0.102 ± 0.092
A36: E -0.001 ± 0.11; W -0.057 ± 0.12; P -0.081 ± 0.3; S -0.095 ± 0.1; Q -0.085 ± 0.24; K -0.291 ± 0.26; L 0.017 ± 0.097; G -0.093 ± 0.071; M -0.093 ± 0.24; C -0.017 ± 0.14; D -0.019 ± 0.1; V -0.023 ± 0.079; F 0.458 ± 0.19
A42: G -0.09 ± 0.28; T 0.002 ± 0.13; S 0.048 ± 0.17; R -0.255 ± 0.12; M -0.208 ± 0.43; N -0.452 ± 0.49; K 0.629 ± 0.5; I -0.183 ± 0.23; W -0.305 ± 0.23; V -0.09 ± 0.14
C40: R -0.799 ± 0.4; W -0.761 ± 0.31; Y 0.296 ± 0.32
D49: W -0.21 ± 0.062; F -0.204 ± 0.092; C -0.67 ± 0.14; V -0.326 ± 0.049; M -0.11 ± 0.37; L -0.222 ± 0.078; A -0.135 ± 0.084; T 0.013 ± 0.23; R -0.22 ± 0.073; E 0.033 ± 0.097; G -0.073 ± 0.035; Y -0.148 ± 0.27
